# Target: Glucokinase (Homo sapiens)
# Assay: Induction of human pancreatic glucokinase activity assessed as maximal reaction rate at 5 mM glucose concentration
protein,measurement,value
"Hexokinase-4 (Homo sapiens), P35557 (protein) MLDDRARMEAAKKEKVEQILAEFQLQEEDLKKVMRRMQKEMDRGLRLETHEEASVKMLPTYVRSTPEGSEVGDFLSLDLGGTNFRVMLVKVGEGEEGQWSVKTKHQMYSIPEDAMTGTAEMLFDYISECISDFLDKHQMKHKKLPLGFTFSFPVRHEDIDKGILLNWTKGFKASGAEGNNVVGLLRDAIKRRGDFEMDVVAMVNDTVATMISCYYEDHQCEVGMIVGTGCNACYMEEMQNVELVEGDEGRMCVNTEWGAFGDSGELDEFLLEYDRLVDESSANPGQQLYEKLIGGKYMGELVRLVLLRLVDENLLFHGEASEQLRTRGAFETRFVSQVESDTGDRKQIYNILSTLGLRPSTTDCDIVRRACESVSTRAAHMCSAGLAGVINRMRESRSEDVMRITVGVDGSVYKLHPSFKERFHASVRRLTPSCEITFIESEEGSGRGAALVSAVACKKACMLGQ",Vmax,130%
